According to FireProtDB (doi:10.1016/s0167-4838(99)00132-6):

Settings: Escherichia coli (strain K12), Thermal, DSC, KH2PO4-KOH 10 mM, reversible: no, whole UniProt chain shown

B1: Glyceraldehyde-3-phosphate dehydrogenase A wild type, P0A9B2 (protein)
chain: MTIKVGINGFGRIGRIVFRAAQKRSDIEIVAINDLLDADYMAYMLKYDSTHGRFDGTVEVKDGHLIVNGKKIRVTAERDPANLKWDEVGVDVVAEATGLFLTDETARKHITAGAKKVVMTGPSKDNTPMFVKGANFDKYAGQDIVSNASCTTNCLAPLAKVINDNFGIIEGLMTTVHATTATQKTVDGPSHKDWRGGRGASQNIIPSSTGAAKAVGKVLPELNGKLTGMAFRVPTPNVSVVDLTVRLEKAATYEQIKAAVKAAAEGEMKGVLGYTEDDVVSTDFNGEVCTSVFDAKAGIALNDNFVKLVSWYDNETGYSNKVLDLIAHISK
Question: For B1, which Tm (pH 6) is on record?
Answer: 75.3 °C

Question: What about the “unfolding enthalpy (calorimetric)” value (pH 6) of the same protein?
Answer: 908 kcal/mol

Question: What about the Tm (pH 8) of the same protein?
Answer: 72.6 °C

Question: And the “unfolding enthalpy (calorimetric)” value (pH 8)?
Answer: 1080 kcal/mol
